Key:
Assay in all cases: immunoblotting after reducing SDS-PAGE
[1] = target: T1, recombinant human ADAM10 (R&D Systems) (human, UniProt O14672 214-672, limits assumed)
T1 sequence (looked up): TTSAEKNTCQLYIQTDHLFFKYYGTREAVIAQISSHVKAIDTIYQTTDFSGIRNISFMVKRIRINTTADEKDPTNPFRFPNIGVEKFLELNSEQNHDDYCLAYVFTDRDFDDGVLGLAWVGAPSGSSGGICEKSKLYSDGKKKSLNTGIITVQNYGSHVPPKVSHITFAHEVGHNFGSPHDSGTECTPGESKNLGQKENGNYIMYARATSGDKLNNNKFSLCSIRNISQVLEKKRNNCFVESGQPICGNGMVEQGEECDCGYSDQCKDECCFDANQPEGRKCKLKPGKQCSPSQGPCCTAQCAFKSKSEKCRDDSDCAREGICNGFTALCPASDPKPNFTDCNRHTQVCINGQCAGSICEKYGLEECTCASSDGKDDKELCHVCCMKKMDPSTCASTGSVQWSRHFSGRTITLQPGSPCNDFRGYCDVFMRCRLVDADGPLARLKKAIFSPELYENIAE
From the text: (§1) Recombinant proteins of human ADAMTS1 (R&D Systems), ADAMTS4, ADAMTS5 (R&D Systems), ADAMTS15 (R&D Systems), ADAM10 (R&D Systems), ADAM12 (Mochida Pharmaceutical Co., Ltd., Tokyo, Japan), ADAM17 (R&D Systems) and MMP-13 (Millipore, Billerica, Mass.) and purified human MMP-1, MMP-2, MMP-3 and MMP-9 (Daiichi Fine Chemical, Co., Ltd., Toyama, Japan) were subjected to sodium dodecyl sulfate-polyacrylamide gel electrophoresis (SDS-PAGE) under reducing conditions, and the samples resolved on the gels were transferred onto polyvinylidene difluoride (PVDF) membranes. […] After washing with phosphate buffered saline containing 0.1% Tween 20, the membranes were reacted with horseradish peroxidase-conjugated secondary antibody against human IgG (Invitrogen, Carlsbad, Calif.) for 1 h at room temperature. A chemiluminescence reagent (Pierce ECL western blotting substrate; Thermo Fisher Scientific, Waltham, Mass.) was used to make the labeled protein bands visible. All the samples were also examined on silver-stained gels, which were prepared by silver stain kit (Cosmo Bio Co., Ltd, […].).

[2] = target: T2, purified human MMP-1 (Daiichi Fine Chemical) (human, UniProt P03956 20-469, limits assumed)
T2 sequence (looked up): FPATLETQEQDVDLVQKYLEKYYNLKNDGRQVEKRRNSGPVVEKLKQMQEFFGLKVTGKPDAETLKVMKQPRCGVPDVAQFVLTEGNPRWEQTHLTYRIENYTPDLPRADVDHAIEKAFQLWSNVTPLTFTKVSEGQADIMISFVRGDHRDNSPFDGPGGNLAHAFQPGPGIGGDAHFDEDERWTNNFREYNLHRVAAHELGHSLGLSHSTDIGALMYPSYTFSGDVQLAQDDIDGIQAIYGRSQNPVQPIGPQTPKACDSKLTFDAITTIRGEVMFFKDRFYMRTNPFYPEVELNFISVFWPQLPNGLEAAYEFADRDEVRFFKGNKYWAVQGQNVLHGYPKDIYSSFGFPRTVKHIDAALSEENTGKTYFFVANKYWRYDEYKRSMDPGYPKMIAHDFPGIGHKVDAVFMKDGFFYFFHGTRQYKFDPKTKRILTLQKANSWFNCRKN
From the text: as §1

[3] = target: recombinant human ADAM17 (R&D Systems) (human, UniProt P78536 215-671, limits assumed)
From the text: as §1

[4] = target: purified human MMP-9 (Daiichi Fine Chemical) (human, UniProt P14780 20-707, limits assumed)
From the text: as §1

[5] = target: T3, recombinant human ADAMTS15 (R&D Systems) (human, UniProt Q8TE58 213-950, limits assumed)
T3 sequence (looked up): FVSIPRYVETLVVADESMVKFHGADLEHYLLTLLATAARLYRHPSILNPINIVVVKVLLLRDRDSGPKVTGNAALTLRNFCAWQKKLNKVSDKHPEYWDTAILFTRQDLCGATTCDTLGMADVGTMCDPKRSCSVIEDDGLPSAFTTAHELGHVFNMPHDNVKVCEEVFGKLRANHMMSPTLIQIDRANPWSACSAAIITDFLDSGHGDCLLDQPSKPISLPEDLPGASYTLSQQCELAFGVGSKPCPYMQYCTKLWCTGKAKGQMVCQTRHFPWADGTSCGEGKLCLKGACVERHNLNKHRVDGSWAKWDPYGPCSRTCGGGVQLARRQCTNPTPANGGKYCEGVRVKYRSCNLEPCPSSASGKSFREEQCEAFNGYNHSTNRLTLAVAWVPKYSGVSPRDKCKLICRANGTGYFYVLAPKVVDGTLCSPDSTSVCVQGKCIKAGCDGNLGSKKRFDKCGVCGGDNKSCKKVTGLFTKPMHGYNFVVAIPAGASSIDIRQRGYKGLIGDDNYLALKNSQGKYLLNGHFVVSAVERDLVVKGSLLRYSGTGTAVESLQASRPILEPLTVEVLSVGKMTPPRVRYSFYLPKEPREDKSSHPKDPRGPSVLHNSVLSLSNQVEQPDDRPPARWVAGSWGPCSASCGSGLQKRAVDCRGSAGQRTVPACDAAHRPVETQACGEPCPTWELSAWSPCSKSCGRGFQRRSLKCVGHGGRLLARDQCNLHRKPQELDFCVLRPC
From the text: as §1

[6] = target: recombinant human MMP-13 (Millipore) (human, UniProt P45452 20-471, limits assumed)
From the text: as §1

[7] = target: purified human MMP-3 (Daiichi Fine Chemical) (human, UniProt P08254 18-477, limits assumed)
From the text: as §1

Measured: binding result

Chain of purified human MMP-3 (Daiichi Fine Chemical) (P08254 18-477 limits assumed): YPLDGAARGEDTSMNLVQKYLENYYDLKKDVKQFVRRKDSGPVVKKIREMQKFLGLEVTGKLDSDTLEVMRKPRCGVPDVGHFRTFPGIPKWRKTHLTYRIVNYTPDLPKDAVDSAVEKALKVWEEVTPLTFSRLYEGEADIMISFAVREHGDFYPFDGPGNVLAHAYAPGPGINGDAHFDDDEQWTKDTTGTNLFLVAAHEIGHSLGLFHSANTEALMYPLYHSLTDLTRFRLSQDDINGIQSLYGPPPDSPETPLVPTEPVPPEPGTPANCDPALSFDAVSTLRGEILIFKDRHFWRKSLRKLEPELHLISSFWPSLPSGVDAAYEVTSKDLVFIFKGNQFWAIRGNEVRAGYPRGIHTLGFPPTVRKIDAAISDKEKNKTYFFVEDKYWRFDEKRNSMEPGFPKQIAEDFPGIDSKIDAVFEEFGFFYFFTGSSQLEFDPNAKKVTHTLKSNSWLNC
Chain of recombinant human ADAM17 (R&D Systems) (P78536 215-671 limits assumed): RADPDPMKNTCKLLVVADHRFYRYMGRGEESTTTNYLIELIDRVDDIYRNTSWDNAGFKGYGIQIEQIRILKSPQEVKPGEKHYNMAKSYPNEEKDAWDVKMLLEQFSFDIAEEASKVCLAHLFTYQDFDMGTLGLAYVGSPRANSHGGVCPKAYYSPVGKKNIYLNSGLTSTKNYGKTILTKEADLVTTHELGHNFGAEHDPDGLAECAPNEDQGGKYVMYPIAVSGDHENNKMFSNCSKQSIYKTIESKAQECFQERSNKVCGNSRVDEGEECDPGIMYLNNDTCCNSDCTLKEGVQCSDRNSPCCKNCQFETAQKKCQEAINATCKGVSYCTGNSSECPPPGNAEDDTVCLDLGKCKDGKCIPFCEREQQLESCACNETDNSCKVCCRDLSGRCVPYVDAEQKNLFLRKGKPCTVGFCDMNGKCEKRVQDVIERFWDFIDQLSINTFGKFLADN
Chain of purified human MMP-9 (Daiichi Fine Chemical) (P14780 20-707 limits assumed): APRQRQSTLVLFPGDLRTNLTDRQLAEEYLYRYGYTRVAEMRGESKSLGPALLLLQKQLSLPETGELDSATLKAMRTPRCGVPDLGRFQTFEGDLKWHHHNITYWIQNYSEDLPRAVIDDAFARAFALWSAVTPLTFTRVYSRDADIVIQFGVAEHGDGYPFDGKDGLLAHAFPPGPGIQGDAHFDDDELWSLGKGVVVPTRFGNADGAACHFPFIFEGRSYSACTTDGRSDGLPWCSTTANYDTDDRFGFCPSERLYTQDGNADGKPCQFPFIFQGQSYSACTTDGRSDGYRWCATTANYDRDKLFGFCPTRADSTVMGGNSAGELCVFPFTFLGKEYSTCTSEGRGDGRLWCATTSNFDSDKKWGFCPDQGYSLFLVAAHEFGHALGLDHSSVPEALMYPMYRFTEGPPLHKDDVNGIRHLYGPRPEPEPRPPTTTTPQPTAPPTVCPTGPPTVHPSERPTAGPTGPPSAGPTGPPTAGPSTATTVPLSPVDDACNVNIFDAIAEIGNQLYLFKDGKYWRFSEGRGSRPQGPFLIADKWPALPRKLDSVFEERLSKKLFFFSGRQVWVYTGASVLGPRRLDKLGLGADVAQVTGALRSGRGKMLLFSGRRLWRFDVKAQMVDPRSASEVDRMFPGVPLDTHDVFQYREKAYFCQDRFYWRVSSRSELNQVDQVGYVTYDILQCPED

B1: Fab of clone 237-53 (Fab, V domains shown)
VH: QVQLVQSGAEVKKPGSSVKVSCKASGGTFSSFAISWVRQAPGQGLEWMGGIFPIFGQANYAQKFQGRVTITADESTSTAYMELSSLRSEDTAVYYCARFSDWWEWQMDYWGQGTLVTVSS
VL: DIVMTQSPDSLAVSLGERATINCRSSQSILYSSNNNYLAWYQQKPGQPPKLLIHTASARESGVPDRFSGSGSGTDFTLTISSLQAEDVAVYYCQQYYSVSITFGQGTKVEIKR
no binding (tested: 5 µg/ml): all assays above

Source: patent US20160304622A1 (GENEFRONTIER, published 2016)
